Each block holds one binder with its values, some of them ahead of it.
B1: CYLD USP domain (aa 583–956) (domain or fragment, human, UniProt Q9NQC7 583-956, looked up)
chain: GLEIMIGKKKGIQGHYNSCYLDSTLFCLFAFSSVLDTVLLRPKEKNDVEYYSETQELLRTEIVNPLRIYGYVCATKIMKLRKILEKVEAASGFTSEEKDPEEFLNILFHHILRVEPLLKIRSAGQKVQDCYFYQIFMEKNEKVGVPTIQQLLEWSFINSNLKFAEAPSCLIIQMPRFGKDFKLFKKIFPSLELNITDLLEDTPRQCRICGGLAMYECRECYDDPDISAGKIKQFCKTCNTQVHLHPKRLNHKYNPVSLPKDLPDWDWRHGCIPCQNMELFAVLCIETSHYVAFVKYGKDDSAWLFFDSMADRDGGQNGFNIPQVTPCPEVGEYLKMSLEDLHSLDSRRIQGCARRLLCDAYMCMYQSPTMSLYK
notes: Dimer by SEC-MALS (86 kDa); also called intact CYLD USP domain; source: Sf9 insect cells, purified (as described in Komander et al., 2008)
B2: CYLD USP domain I790D (domain or fragment, human)
chain: GLEIMIGKKKGIQGHYNSCYLDSTLFCLFAFSSVLDTVLLRPKEKNDVEYYSETQELLRTEIVNPLRIYGYVCATKIMKLRKILEKVEAASGFTSEEKDPEEFLNILFHHILRVEPLLKIRSAGQKVQDCYFYQIFMEKNEKVGVPTIQQLLEWSFINSNLKFAEAPSCLIIQMPRFGKDFKLFKKIFPSLELNITDLLEDTPRQCRDCGGLAMYECRECYDDPDISAGKIKQFCKTCNTQVHLHPKRLNHKYNPVSLPKDLPDWDWRHGCIPCQNMELFAVLCIETSHYVAFVKYGKDDSAWLFFDSMADRDGGQNGFNIPQVTPCPEVGEYLKMSLEDLHSLDSRRIQGCARRLLCDAYMCMYQSPTMSLYK
notes: CYLD, human, USP domain with I790D, 44 kDa observed; Monomer by SEC-MALS; Limits of the mutant are not restated; parent is m1; also called CYLD I790D; I790D dimerization mutant; source: Sf9 insect cells, purified (as described in Komander et al., 2008)
B3: SPATA2 PUB domain (aa 1–241) (domain or fragment, UniProt Q9UM82 1-241, looked up)
chain: MGKPSSMDTKFKDDLFRKYVQFHESKVDTTTSRQRPGSDECLRVAASTLLSLHKVDPFYRFRLIQFYEVVESSLRSLSSSSLRALHGAFSMLETVGINLFLYPWKKEFRSIKTYTGPFVYYVKSTLLEEDIRAILSCMGYTPELGTAYKLRELVETLQVKMVSFELFLAKVECEQMLEIHSQVKDKGYSELDIVSERKSSAEDVRGCSDALRRRAEGREHLTASMSRVALQKSASERAAKD
notes: Spermatogenesis-associated protein 2 (SPATA2), PUB domain, residues 1-241, 27.6 kDa as printed; Monomer by SEC-MALS; also called SPATA2 PUB domain (1–241); source: E. coli, purified (as described in Elliott et al., 2014)
B4: SPATA2 (aa 7–356) (domain or fragment, UniProt Q9UM82 7-356, looked up)
chain: MDTKFKDDLFRKYVQFHESKVDTTTSRQRPGSDECLRVAASTLLSLHKVDPFYRFRLIQFYEVVESSLRSLSSSSLRALHGAFSMLETVGINLFLYPWKKEFRSIKTYTGPFVYYVKSTLLEEDIRAILSCMGYTPELGTAYKLRELVETLQVKMVSFELFLAKVECEQMLEIHSQVKDKGYSELDIVSERKSSAEDVRGCSDALRRRAEGREHLTASMSRVALQKSASERAAKDYYKPRVTKPSRSVDAYDSYWESRKPPLKASLSLRKEPVATDVGDDLKDEIIRPSPSLLTMASSPHGSPDVLPPASPSNGPALLRGTYFSTQDDVDLYTDSEPRATYRRQDALRPD
notes: also called extended SPATA2 fragment; source: E. coli, purified (as described in Elliott et al., 2014)

Tests used:
SPATA2 (aa 7–356) = biological target: B4; experiment: SEC-MALS; Superdex 200 column; purified SPATA2 (aa 7–356), HOIP PUB (aa 1–184) and CYLD alone and mixed; details: both partners purified
[1] = biological target: B3; experiment: cell-based or functional assay
[2] = biological target: the molecule itself; experiment: SEC-MALS; Superdex 75 size-exclusion column; CYLD and SPATA2 PUB variants alone and mixed
[3] = biological target: B3; experiment: as above; details: both partners purified
CYLD USP domain I790D = biological target: B2; experiment: SPR; fraction of CYLD variant bound to SPATA2 PUB against varying CYLD concentrations; kinetic and equilibrium fits; details: both partners purified
[4] = biological target: B1; experiment: as above; details: both partners purified
[5] = biological target: T1, HOIP PUB domain (aa 1–184) (UniProt Q96EP0 1-184); experiment: SEC-MALS; Superdex 200 column; purified SPATA2 (aa 7–356), HOIP PUB (aa 1–184) and CYLD alone and mixed; details: both partners purified
T1 construct: HOIP (RNF31), PUB domain, residues 1-184; The construct used in the pull-down, NMR and FP experiments is called only 'HOIP PUB domain'; also called HOIP PUB domain (1–184); source: E. coli, purified (as described in Elliott et al., 2014)
T1 sequence (looked up): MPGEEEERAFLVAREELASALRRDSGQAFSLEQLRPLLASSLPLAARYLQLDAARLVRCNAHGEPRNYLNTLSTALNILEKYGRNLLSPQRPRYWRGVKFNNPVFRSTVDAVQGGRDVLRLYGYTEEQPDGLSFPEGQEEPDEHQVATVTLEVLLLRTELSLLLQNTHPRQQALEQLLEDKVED

[6] = biological target: T2, HOIP PUB domain (HOIP 5–180, crystal structure) (UniProt Q96EP0 5-180); experiment: crystal structure; HOIP PUB domain with SPATA2 PIM peptide (aa 334–344), 2.7 Å, space group P43, two complexes in the asymmetric unit; details: both partners purified
T2 construct: 5–180 may be the modelled residues of the 1–184 construct; source: E. coli, purified (as described in Elliott et al., 2014)
T2 sequence (looked up): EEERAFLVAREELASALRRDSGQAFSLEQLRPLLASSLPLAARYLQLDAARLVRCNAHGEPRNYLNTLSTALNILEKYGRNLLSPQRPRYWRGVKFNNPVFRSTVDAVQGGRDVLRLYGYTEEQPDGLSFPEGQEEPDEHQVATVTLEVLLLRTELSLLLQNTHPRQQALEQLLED

Binder: B1
- stoichiometry N (SPATA2 (aa 7–356)): 1 CYLD per SPATA2 (2:2:2 with HOIP PUB)
- kcat/KM of CYLD for fluorescent Met1/Lys63-linked diUb substrates, with against without SPATA2 [1]: ~2 fold
- stoichiometry N [2]: 2
- stoichiometry N [3]: 1 CYLD USP per SPATA2 PUB (2:2)

Binder: B2
- stoichiometry N [3]: 1 CYLD USP I790D per SPATA2 PUB (1:1)

Binder: B3
- Kd (CYLD USP domain I790D): 518 nM
- Kd [4]: 96 nM

Binder: B4
- stoichiometry N [5]: 1 SPATA2 per HOIP PUB (1:1)

B5: CYLD B-box domain (aa 778–855) (domain or fragment, human, UniProt Q9NQC7 778-855, looked up)
chain: TDLLEDTPRQCRICGGLAMYECRECYDDPDISAGKIKQFCKTCNTQVHLHPKRLNHKYNPVSLPKDLPDWDWRHGCIP
modifications: 15N-labelled in the NMR titration
notes: CYLD, human, B-box domain, residues 778-855, 9.1 kDa as printed; Dimer by SEC-MALS (17.1 kDa); also called isolated B-box domain
- stoichiometry N [2]: 2

- binding result [6]: binds
B6: SPATA2 PIM peptide (aa 334–344) (peptide, UniProt Q9UM82 334-344, looked up)
peptide: DVDLYTDSEPR
notes: SPATA2, peptide spanning the PIM (Asp-Leu-Tyr-Thr, residues 336-339), residues 334-344; also called SPATA2 334–344

— paper PMC5031558, “SPATA2 Links CYLD to LUBAC, Activates CYLD, and Controls LUBAC Signaling” (Molecular Cell, 2016)
